Reference: PMC10127692

Tests used:
Experiment in all cases: two-hybrid
[1] = target: BD-SUD2_(core) (SUD2-N+M, K412 to S675 of SARS-CoV-2 Nsp3, fused to the DNA binding domain) (SARS-CoV-2)
[2] = target: SUD2-N (K412 to E548 of SARS-CoV-2 Nsp3), two-hybrid bait (SARS-CoV-2)
[3] = target: SUD2-M (I549 to S675 of SARS-CoV-2 Nsp3), two-hybrid bait (SARS-CoV-2)

Substance	fold LacZ reporter induction against full-length SUD2 [1]	LacZ reporter activity compared with SUD2-N+M [2]	LacZ reporter activity compared with SUD2-N+M [3]
AD-Nsp5 (Nsp5 of SARS-CoV-2 fused to the activation domain) (from UniProt P0DTD1 3264-3569)	2.1 fold		
AD-Nsp5 (Nsp5 of SARS-CoV-2 fused to the activation domain) (from UniProt P0DTD1 3264-3569) (enzyme)		47%	86%
